Test results: article PMC4784688 (Developmental cell, 2015)

T1: Slitrk5 (UniProt O94991)
T1 chain: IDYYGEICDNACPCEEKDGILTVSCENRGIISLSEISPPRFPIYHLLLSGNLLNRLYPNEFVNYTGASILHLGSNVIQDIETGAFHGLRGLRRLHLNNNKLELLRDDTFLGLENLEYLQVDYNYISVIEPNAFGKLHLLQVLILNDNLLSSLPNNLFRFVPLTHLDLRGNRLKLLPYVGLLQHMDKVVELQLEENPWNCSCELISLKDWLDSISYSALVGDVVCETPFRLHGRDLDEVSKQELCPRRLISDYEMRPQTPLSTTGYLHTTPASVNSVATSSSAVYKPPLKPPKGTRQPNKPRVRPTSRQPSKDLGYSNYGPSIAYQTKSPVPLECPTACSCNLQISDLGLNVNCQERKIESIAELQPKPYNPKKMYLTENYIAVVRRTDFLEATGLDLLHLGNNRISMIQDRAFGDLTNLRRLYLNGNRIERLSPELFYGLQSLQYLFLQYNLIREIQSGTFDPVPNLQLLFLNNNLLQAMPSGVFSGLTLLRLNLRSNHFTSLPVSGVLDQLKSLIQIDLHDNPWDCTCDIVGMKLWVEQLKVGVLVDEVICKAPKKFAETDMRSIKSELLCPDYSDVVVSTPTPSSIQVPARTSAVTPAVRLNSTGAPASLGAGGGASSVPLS

T2: soluble purified PTPδ ectodomain fused to the Fc region of human immunoglobulin (UniProt Q64487 21-1266)
T2 sequence (looked up): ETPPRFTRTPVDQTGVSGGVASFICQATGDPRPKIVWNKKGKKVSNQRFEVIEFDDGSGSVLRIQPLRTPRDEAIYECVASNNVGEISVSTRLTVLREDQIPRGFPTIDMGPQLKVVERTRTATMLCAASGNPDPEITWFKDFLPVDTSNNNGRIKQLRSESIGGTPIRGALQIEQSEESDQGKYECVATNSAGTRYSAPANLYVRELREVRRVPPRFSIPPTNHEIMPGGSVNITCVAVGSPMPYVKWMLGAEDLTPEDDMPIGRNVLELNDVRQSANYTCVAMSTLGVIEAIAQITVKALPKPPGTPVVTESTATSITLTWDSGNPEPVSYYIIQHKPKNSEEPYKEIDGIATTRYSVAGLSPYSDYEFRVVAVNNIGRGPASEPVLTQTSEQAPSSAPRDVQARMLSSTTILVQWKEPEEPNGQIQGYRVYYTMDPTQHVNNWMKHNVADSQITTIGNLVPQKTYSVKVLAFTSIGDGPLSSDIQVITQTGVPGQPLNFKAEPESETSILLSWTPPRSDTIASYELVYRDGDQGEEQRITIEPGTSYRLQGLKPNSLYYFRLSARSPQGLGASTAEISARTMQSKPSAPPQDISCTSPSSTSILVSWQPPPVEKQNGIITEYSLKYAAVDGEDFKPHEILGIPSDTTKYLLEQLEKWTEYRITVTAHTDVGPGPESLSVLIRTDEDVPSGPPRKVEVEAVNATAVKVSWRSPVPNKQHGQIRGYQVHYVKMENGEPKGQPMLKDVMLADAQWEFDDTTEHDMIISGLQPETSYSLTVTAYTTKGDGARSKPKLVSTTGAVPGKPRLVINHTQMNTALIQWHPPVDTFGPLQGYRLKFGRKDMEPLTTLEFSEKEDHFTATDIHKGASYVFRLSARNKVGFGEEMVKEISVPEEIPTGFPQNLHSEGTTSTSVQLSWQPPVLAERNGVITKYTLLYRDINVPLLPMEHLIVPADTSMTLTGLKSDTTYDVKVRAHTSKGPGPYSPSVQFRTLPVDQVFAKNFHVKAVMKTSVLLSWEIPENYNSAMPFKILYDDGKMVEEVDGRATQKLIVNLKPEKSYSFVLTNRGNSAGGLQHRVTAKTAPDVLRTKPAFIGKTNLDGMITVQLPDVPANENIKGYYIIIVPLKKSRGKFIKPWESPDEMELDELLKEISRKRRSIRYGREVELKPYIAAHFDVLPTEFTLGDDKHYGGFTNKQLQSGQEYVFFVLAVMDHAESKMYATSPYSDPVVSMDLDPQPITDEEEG


Experiments:
Slitrk5 = target: T1, Slitrk5; assay: PTPδ-Fc dissociation from cells
[1] = target: T2, soluble purified PTPδ ectodomain fused …; assay: immunostaining of cells or tissue

Kd (Slitrk5)	Kd [1]	Binder
~0.9 nM		BDNF (protein) HSDPARRGELSVCDSISEWVTAADKKTAVDMSGGTVTVLEKVPVSKGQLKQYFYETKCNPMGYTKEGCRGIDKRHWNSQCRTTQSYVRALTMDSKKRIGWRFIRIDTSCVCTLTIKRGR
	~100 nM	HA-tagged Slitrk5 (WT, full-length) (natural protein, UniProt Q810B7 41-957, looked up) IDYYGEICDNACPCEEKDGILTVSCENRGIISLSEISPPRFPIYHLLLSGNLLSRLYPNEFVNYTGASILHLGSNVIQDIETGAFHGLRGLRRLHLNNNKLELLRDDTFLGLENLEYLQVDYNYISVIEPNAFGKLHMLQVLILNDNLLSGLPNNLFRFVPLTHLDLRGNRLKLLPYVGLLQHMDKVVELQLEENPWNCSCELISLKDWLDSISYSALVGDVVCETPFRLHGRDLDEVSKQELCPRKLISDYEMRPQTPLSTTGYLHTTPASVNSVATSSSAVYKPPLKPPKGTRQPNKPRVRPTSRQPSKDLGYSNYGPSIAYQTKSPVPLECPTACTCNLQISDLGLNVNCQERKIESIAELQPKPYNPKKMYLTENYITVVRRTDFLEATGLDLLHLGNNRISMIQDRAFGDLGNLRRLYLNGNRIERLSPELFYGLQSLQYLFLQYNLIREIQAGTFDPVPNLQLLFLNNNQLQAMPSGVFSGLTLLRLNLRGNSFTSLPVSGVLDQLTSLIQIDLHDNPWDCTCDVVGMKLWIEQLKVGVLVDEVICKAPKKFAETYMRSIKSELLCPDYSDVVVSTPTPSSIQVPSRTNAATPAVRLNSTGTPAGLGAGTGASSVPLSVLILSLLLVFIMSVFVAAGLFVLVMKRRKKNQSDHTSTNNSDVSSFNMQYSVYGGGGGGGGGHPHAHVHHRGPALPKVKTPAGHVYEYIPHPLGHMCKNPIYRSREGNSVEDYKDLHELKVTYSSNHHLQQQPPPPPQQPQQQPPPQMQMQPGEEERRESHHLRSPAYSVSTIEPREDLLSPVQDADRFYRGILEPDKHCSTTPAGSSLPEYPKFPCSPAAYTFSPNYDLRRPHQYLHPGAGESRLREPVLYSPPGAVFVEPNRNEYLELKAKLNVEPDYLEVLEKQTTFSQF
